What was measured:
[1] = Plasma concentration of adalimumab or ustekinumab in implanted Nude mice (human IgG Fc ELISA); assay type: in vivo, mouse; details: for day plateau was reached: nPET-PBT/PET/nPU cell chamber device; for average plasma concentration plateau: nPET-PBT/PET/nPU cell chamber device with antibody-expressing ARPE19 cells, subcutaneous
Description: To assess the ability to deliver biologics into the blood flow and the applicability of the devices to other biologics, secretion of adalimumab or ustekinumab from the nPET-PBT/PET/nPU cell chamber device described in Example 10 was assessed in vivo. The nPET-PBT/PET/nPU cell chamber device was seeded with ARPE19 cells stably expressing adalimumab or ustekinumab (see also Example 8) and subcutaneously implanted in Nude mice. Mice were assessed by blood collection over the course of >100 days to measure the plasma concentration of each antibody over time. Human IgG concentration in plasma was tested by an ELISA assay which detected the human IgG Fc region. […] (Day 1-Day 60: N=5, Day 61-Day 81: N=4, Day 82-92: N=3, Day 93-Day 108: N=2). Similarly, the average ustekinumab plasma concentration reached a plateau of approximately 60-110 μg/mL around Day 20 and maintained a steady-state over 80 days (N=5).

[2] = HPLC analysis of tacrolimus solvent-extracted from electrospun nPET-PBT; assay type: physicochemical; details: HPLC after solvent extraction
Description: To reduce inflammation due to implantation trauma, the cell scaffold device can be loaded with tacrolimus (FK506). To assess cell seeding and biomolecule secretion on tacrolimus-treated materials, electrospun nPET-PBT was loaded with tacrolimus by dissolving 0% tacrolimus, 2% tacrolimus, or 4% tacrolimus to the polymer solution prior to electrospinning.
Incorporation of tacrolimus into nPET-PBT was assessed by solvent extracting the tacrolimus from the electrospun materials. The solvent extracted solution was then analyzed by high performance liquid chromatography (HPLC).

[3] = tested on: vedolizumab/Luc-ARPE19 cells; experiment: Cell growth and vedolizumab secretion on tacrolimus-loaded nPET-PBT; assay type: cell-based, human; details: 200,000 cells/condition, three days, fluorescence imaging
Description: Cells were grown on tacrolimus-loaded nPET-PBT discs over three days, after which the surfaces of the nPET-PBT material were visually inspected by fluorescence imaging. […] Cells were further assessed three weeks post-seeding.

[4] = molecular target: human TNFα (Homo sapiens, UniProt P01375); experiment: Neutralization of human TNFα activity in L-929 cells (CCK-8 viability); assay type: cell-based; details: antibody secreted by ARPE-19 cells in culture medium, human TNFα 1 ng/mL
Description: Adalimumab is an anti-TNFα antibody. To assay for adalimumab activity in the cell culture medium of adalimumab/ARPE-19 cells, L-929 cells were seeded into a 96 well cell culture plate at the density of 5,000 cells/well in DMEM supplemented with 10% FBS. After 20-hour incubation, the cells were sensitized with Actinomycin D (2 μg/mL) for two hours. Then the cells were incubated with culture medium comprising antibodies secreted by the ARPE-19 cells in the presence of human TNFα (1 ng/mL). After another 20-hour incubation the cells were evaluated for cell viability by a CCK-8 assay to test for neutralization of human TNFα activity.

Sequence of human TNFα (P01375 77-233 limits assumed): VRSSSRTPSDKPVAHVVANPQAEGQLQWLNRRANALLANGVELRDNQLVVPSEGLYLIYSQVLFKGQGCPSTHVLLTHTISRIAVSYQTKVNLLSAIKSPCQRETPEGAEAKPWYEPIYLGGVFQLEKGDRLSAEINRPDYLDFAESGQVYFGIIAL

drug degradation following loading onto electrospun nPET-PBT [2] | Molecule | day plateau was reached [1] [days] | average plasma concentration plateau [1] [µg/mL] | effect on cell proliferation or growth [3] | TNFα neutralizing activity [4]
– | ustekinumab: anti-IL-12/IL-23 antibody | ~20 | 60 to 110 | – | –
no drug degradation | C=CC[C@@H]1/C=C(\C)C[C@H](C)C[C@H](OC)[C@H]2O[C@@](O)(C(=O)C(=O)N3CCCC[C@H]3C(=O)O[C@H](/C(C)=C/[C@@H]3CC[C@@H](O)[C@H](OC)C3)[C@H](C)[C@@H](O)CC1=O)[C@H](C)C[C@@H]2OC [tacrolimus] | – | – | no detectable effect on cell proliferation or growth | –
– | adalimumab | ~25 | 50 to 100 | – | retained TNFα neutralizing activity
